Measured values taken from patent publication US20020098560.

Experiments:
[1] = system: Recombinant TFPI-2 (novel human Kunitz-type inhibitor encoded by clone J-2-11, expressed in BHK570 cells and purified from conditioned medium)
[2] = molecular target: T1, Recombinant TFPI-2 (novel human Kunitz-type inhibitor encoded by clone J-2-11, expressed in BHK570 cells and purified from conditioned medium)
T1 chain: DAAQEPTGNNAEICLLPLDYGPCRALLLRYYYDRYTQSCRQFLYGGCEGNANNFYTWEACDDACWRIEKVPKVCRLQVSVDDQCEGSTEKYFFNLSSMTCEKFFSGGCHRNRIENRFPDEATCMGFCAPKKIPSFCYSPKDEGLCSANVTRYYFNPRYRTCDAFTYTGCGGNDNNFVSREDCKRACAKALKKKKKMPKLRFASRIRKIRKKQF

Human factor Xa was tested, and the “amidolytic activity of 20 nM factor Xa towards chromogenic substrate S-2222 (absorbance at 405 nm)” value [1] was “Recombinant TFPI-2 was shown to weakly inhibit the amidolytic activity of 20 nM factor Xa towards the chromogenic substrate S-2222 in a dose-dependent manner”.

With Human thrombin the “amidolytic activity of human thrombin towards chromogenic substrate S-2238 (absorbance at 405 nm)” value [1] was “Recombinant TFPI-2 was shown to have no effect on the amidolytic activity of human thrombin towards S-2238”.

B1: Human factor VIIa/tissue factor complex (recombinant human factor VIIa with recombinant, truncated, human tissue factor apoprotein TF1-219) (protein)
chain 1: ANAFLEELRPGSLERECKEEQCSFEEAREIFKDAERTKLFWISYSDGDQCASSPCQNGGSCKDQLQSYICFCLPAFEGRNCETHKDDQLICVNENGGCEQYCSDHTGTKRSCRCHEGYSLLADGVSCTPTVEYPCGKIPILEKRNASKPQGRIVGGKVCPKGECPWQVLLLVNGAQLCGGTLINTIWVVSAAHCFDKIKNWRNLIAVLGEHDLSEHDGDEQSRRVAQVIIPSTYVPGTTNHDIALLRLHQPVVLTDHVVPLCLPERTFSERTLAFVRFSLVSGWGQLLDRGATALELMVLNVPRLMTQDCLQQSRKVGDSPNITEYMFCAGYSDGSKDSCKGDSGGPHATHYRGTWYLTGIVSWGQGCATVGHFGVYTRVSQYIEWLQKLMRSEPRPGVLLRAPFP
chain 2: SGTTNTVAAYNLTWKSTNFKTILEWEPKPVNQVYTVQISTKSGDWKSKCFYTTDTECDLTDEIVKDVKQTYLARVFSYPAGNVESTGSAGEPLYENSPEFTPYLETNLGQPTIQSFEQVGTKVNVTVEDERTLVRRNNTFLSLRDVFGKDLIYTLYYWKSSSSGKKTAKTNTNEFLIDVDKGENYCFSVQAVIPSRTVNRKSTDSPVECMGQEKGEFRE
With B1 the “amidolytic activity of 20 nM factor VIIa-tissue factor towards chromogenic substrate S-2288 (absorbance at 405 nm)” value [2] was “Recombinant TFPI-2 was shown to inhibit the amidolytic activity of 20 nM factor VIIa-tissue factor towards the chromogenic substrate S-2288 in a dose-dependent manner”.
